± gives the uncertainty stated by the source.
Test: self-splicing fitness, log relative to wild type (ln ratio); higher = more splicing; Tetrahymena group I intron in knt gene, E. coli kanamycin selection, DiMSum; sequences stand for … in CUCUCU…GGAGGGAAAAGUUAUCAGGCAUGCACCUGGUAGCUAGUCUUUAAACCAAUAGAUUGCAUCGGUUUAAAAGGCAAGACCGUCAAAUUGCGGGAAAGGGGUCAACAGCCGUUCAGUACCAAGUCUCAGGGGAAACUUUGAGAUGGCCUUGCAAAGGGUAUGGUAAUAAGCUGACGGACAUGGUCCUAACCACGCAGCCAAGUCCUAAGUCAACAGAUCUUCUGUUGAUAUGGAUGCAGUUCACAGACUAAAUGUCGGUCGGGGAAGAUGUAUUCUUCUCAUAAGAUAUAGUCGGACCUCUCCUUAAUGGGAGCUAGCGGAUGAAGUGAUGCAACACUGGAGCCGCUGGGAACUAAUUUGUAUGCGAAAGUAUAUUGAUUAGUUUUGGAGUACUCGUGGUCG
In short: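 DiMSum derived fitness as the error-weighted combination of fold changes across replicates, kanamycin versus no kanamycin, normalised to wild type. E. coli BL21(DE3) held the library, which randomised all eight P1ex-region intron nucleotides within the knt kanamycin-resistance gene on pET-22b(+). Six replicate transformations grew overnight at 37°C or 30°C on LB agar with or without 25 μg/mL kanamycin, also containing 100 μg/mL carbenicillin, 50 μM IPTG and 0.2% rhamnose, and pooled colonies were amplicon-sequenced on an Illumina HiSeq 2500.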

Sequence | self-splicing fitness (ln) (30 °C) | self-splicing fitness (ln) (37 °C)
GCGCAGCAAUAUUACGAGGC | -2.7 ± 0.35 | -1.29 ± 0.24
GCGCAGCAAUAUUACGAGGG | -2.78 ± 0.09 | -1.84 ± 0.098
GCGCAGCAAUAUUACGAGUC | -1.6 ± 0.13 | -1.36 ± 0.24
GCGCAGCAAUAUUACGAUGA | -0.132 ± 0.099 | -0.33 ± 0.092
GCGCAGCAAUAUUACGCACA | -1.5 ± 0.12 | -0.062 ± 0.11
GCGCAGCAAUAUUACGCCCA | 0.169 ± 0.24 | -0.637 ± 0.33
GCGCAGCAAUAUUACGCUAC | -1.82 ± 0.17 | -1.71 ± 0.3
GCGCAGCAAUAUUACGGAAA | -1.97 ± 0.23 | -0.698 ± 0.2
GCGCAGCAAUAUUACGGAUU | -0.79 ± 0.039 | -0.328 ± 0.056
GCGCAGCAAUAUUACGGGCU | -3.6 ± 0.23 | -3.02 ± 0.27
GCGCAGCAAUAUUACGGGGG | -2.2 ± 0.12 | -1.4 ± 0.12
GCGCAGCAAUAUUACGGGGU | -2.94 ± 0.096 | -2.31 ± 0.13
GCGCAGCAAUAUUACGGUAA | -1.55 ± 0.11 | 0.236 ± 0.11
GCGCAGCAAUAUUACGGUUC | -0.737 ± 0.077 | 0.0559 ± 0.082
GCGCAGCAAUAUUACGGUUU | -0.323 ± 0.048 | -0.167 ± 0.057
GCGCAGCAAUAUUACGUCGA | -0.665 ± 0.09 | 0.801 ± 0.13
GCGCAGCAAUAUUACGUGAA | 0.0716 ± 0.076 | 0.149 ± 0.074
GCGCAGCAAUAUUACGUGAG | -0.213 ± 0.054 | 0.445 ± 0.082
GCGCAGCAAUAUUACGUGCA | -2.09 ± 0.096 | -0.706 ± 0.08
GCGGAGCAAUAUUACGACAU | -1.38 ± 0.016 | -0.573 ± 0.035
GCGGAGCAAUAUUACGACCU | -0.927 ± 0.2 | -1.02 ± 0.19
GCGGAGCAAUAUUACGAGUG | -2.86 ± 0.34 | -2.71 ± 0.48
GCGGAGCAAUAUUACGCUAU | -3.16 ± 0.36 | -2.53 ± 0.49
GCGGAGCAAUAUUACGCUGG | – | -2.1 ± 0.4

Sequence | self-splicing fitness (ln) (30 °C) | self-splicing fitness (ln) (37 °C)
GCGGAGCAAUAUUACGGCGU | -3.49 ± 0.33 | -2.08 ± 0.31
GCGGAGCAAUAUUACGUCGG | -2.62 ± 0.12 | -1.78 ± 0.17
GCGGAGCAAUAUUACGUUUC | -2.57 ± 0.39 | –
GCGUAGCAAUAUUACGAACG | -2.48 ± 0.29 | -1.79 ± 0.27
GCGUAGCAAUAUUACGAUAA | -0.962 ± 0.21 | -0.707 ± 0.24
GCGUAGCAAUAUUACGAUUC | -0.141 ± 0.098 | -0.0224 ± 0.11
GCGUAGCAAUAUUACGCACC | -4.01 ± 0.37 | -1.49 ± 0.34
GCGUAGCAAUAUUACGCGAA | – | -1.31 ± 0.39
GCGUAGCAAUAUUACGCGCU | -3.31 ± 0.2 | -2.84 ± 0.35
GCGUAGCAAUAUUACGCGGC | -2.64 ± 0.27 | -2.08 ± 0.46
GCGUAGCAAUAUUACGGCCG | -1.01 ± 0.16 | 0.509 ± 0.34
GCGUAGCAAUAUUACGGCUA | -1.92 ± 0.26 | -0.79 ± 0.2
GCGUAGCAAUAUUACGGUAG | -2.9 ± 0.28 | -2.03 ± 0.23
GCGUAGCAAUAUUACGGUCA | -0.597 ± 0.081 | -0.142 ± 0.083
GCGUAGCAAUAUUACGGUGU | -3.33 ± 0.21 | -1.48 ± 0.14
GCGUAGCAAUAUUACGGUUC | -2.26 ± 0.14 | -0.643 ± 0.18
GCGUAGCAAUAUUACGGUUG | -2.96 ± 0.13 | -1.75 ± 0.14
GCGUAGCAAUAUUACGUAAC | -3.58 ± 0.27 | -0.0467 ± 0.15
GCGUAGCAAUAUUACGUAGG | -3.73 ± 0.22 | -2.02 ± 0.19
GCGUAGCAAUAUUACGUCGA | -2.69 ± 0.35 | -1.85 ± 0.32
GCGUAGCAAUAUUACGUCGC | -2.62 ± 0.13 | -1.84 ± 0.21
GCGUAGCAAUAUUACGUCUU | -3.15 ± 0.098 | -1.93 ± 0.1
GCGUAGCAAUAUUACGUGUC | -3.83 ± 0.27 | -2.06 ± 0.14
GCUAAGCAAUAUUACGAAAU | -1.64 ± 0.11 | -0.218 ± 0.1

Reference: the supplement of paper PMC7877785
